Measurements: patent US20060257938A1, “Method of screening for drugs that block ligand binding to a lipid binding protein” (priority 2005, published 2006)
Where a chain is given by its changes, count along the chain named.

B1: 23Y1, 72A (protein, listed as Rattus norvegicus)
chain: AFDGTWKVDRNENYEKFMEKMGYNVVKRKLGAHDNLKLTITQEGNKFTVKESSNFRNIDVVFELGVDFAYSAADGTELTGTWTMEGNKLVGKFKRVDNGKELIAVREISGNELIQTYTYEGVEAKRIFKKE
modifications: PEPTIDE (1)...(131) wild-type rat intestinal fatty acid binding protein
B2: 31C1, 72A (protein, listed as Rattus norvegicus)
chain: B1 chain with Y23I, G31C
modifications: PEPTIDE (1)...(131) wild-type rat intestinal fatty acid binding protein
B3: 31Q3, 72A (protein, listed as Rattus norvegicus)
chain: B1 chain with Y23I, G31Q
modifications: PEPTIDE (1)...(131) wild-type rat intestinal fatty acid binding protein
B4: 31T2, 72A (protein, listed as Rattus norvegicus)
chain: B1 chain with Y23I, G31T
modifications: PEPTIDE (1)...(131) wild-type rat intestinal fatty acid binding protein
B5: 31P1, 72A (protein, listed as Rattus norvegicus)
chain: B1 chain with Y23I, G31P
modifications: PEPTIDE (1)...(131) wild-type rat intestinal fatty acid binding protein
B6: 31I1, 72A (protein, listed as Rattus norvegicus)
chain: B1 chain with Y23I, G31I
modifications: PEPTIDE (1)...(131) wild-type rat intestinal fatty acid binding protein
B7: 31K2, 72A (protein, listed as Rattus norvegicus)
chain: B1 chain with Y23I, G31K
modifications: PEPTIDE (1)...(131) wild-type rat intestinal fatty acid binding protein
B8: 31V2, 72A (protein, listed as Rattus norvegicus)
chain: B1 chain with Y23I, G31V
modifications: PEPTIDE (1)...(131) wild-type rat intestinal fatty acid binding protein
B9: 31Y2, 72A (protein, listed as Rattus norvegicus)
chain: B1 chain with Y23I, G31Y
modifications: PEPTIDE (1)...(131) wild-type rat intestinal fatty acid binding protein
B10: 34A, 72A (protein, listed as Rattus norvegicus)
chain: B1 chain with Y23I, D34A
modifications: PEPTIDE (1)...(131) wild-type rat intestinal fatty acid binding protein
B11: 31R1, 72A (protein, listed as Rattus norvegicus)
chain: B1 chain with Y23I, G31R
modifications: PEPTIDE (1)...(131) wild-type rat intestinal fatty acid binding protein
B12: 31Y1, 72A (protein, listed as Rattus norvegicus)
chain: B1 chain with Y23I, G31Y
modifications: PEPTIDE (1)...(131) wild-type rat intestinal fatty acid binding protein
B13: 31E3, 72A (protein, listed as Rattus norvegicus)
chain: B1 chain with Y23I, G31E
modifications: PEPTIDE (1)...(131) wild-type rat intestinal fatty acid binding protein
B14: 31M2, 72A (protein, listed as Rattus norvegicus)
chain: B1 chain with Y23I, G31M
modifications: PEPTIDE (1)...(131) wild-type rat intestinal fatty acid binding protein
B15: 31W2, 72A (protein, listed as Rattus norvegicus)
chain: B1 chain with Y23I, G31W
modifications: PEPTIDE (1)...(131) wild-type rat intestinal fatty acid binding protein
B16: 31N2, 72A (protein, listed as Rattus norvegicus)
chain: B1 chain with Y23I, G31N
modifications: PEPTIDE (1)...(131) wild-type rat intestinal fatty acid binding protein
B17: 31F2, 72A (protein, listed as Rattus norvegicus)
chain: B1 chain with Y23I, G31F
modifications: PEPTIDE (1)...(131) wild-type rat intestinal fatty acid binding protein
B18: 31D2, 72A (protein, listed as Rattus norvegicus)
chain: B1 chain with Y23I, G31D
modifications: PEPTIDE (1)...(131) wild-type rat intestinal fatty acid binding protein

Experiment: Probe fluorescence ratio response to palmitic acid relative to ADIFAB2
Type: binding
Conditions: response relative to ADIFAB2
Outline: (§1)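 Fluorescently labeled rat intestinal FABP variants were read at two emission wavelengths, near the unbound maximum (about 420 to 480 nm) and the FFA-bound maximum (about 495 to 580 nm). R = Fλ1/Fλ2 after subtracting probe-free intensity; ΔR = R+agent − R0, normalized to ADIFAB2 (rI-FABP-L72A).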

First: B1
Second: B2
The “DR/DR PA” value of the first is higher: 0.28 for the first, 0.23 for the second.

First: B3
Second: B4
The “DR/DR PA” value of the first is higher: 1.04 for the first, 0.41 for the second.

Going from B5 to B6, the “DR/DR PA” value falls from 0.23 to 0.09.

First: B7
Second: B8
The “DR/DR PA” value of the first is higher: 0.42 for the first, 0.21 for the second.

Going from B9 to B10, the “DR/DR PA” value rises from 0.17 to 0.33.

Going from B11 to B12, the “DR/DR PA” value rises from 0.34 to 1.10.

First: B13
Second: B14
The “DR/DR PA” value of the first is lower: 0.38 for the first, 0.46 for the second.

Going from B15 to B16, the “DR/DR PA” value falls from 0.62 to 0.50.

First: B17
Second: B18
The “DR/DR PA” value of the first is higher: 1.21 for the first, 0.06 for the second.

Experiment: Probe fluorescence ratio response to oleic acid relative to ADIFAB2
Type: binding
Conditions: response relative to ADIFAB2
Outline: as §1

Compared with B1, B2 is lower in “DR/DR OA” value: 0.41 for the first, 0.30 for the second.

First: B3
Second: B4
The “DR/DR OA” value of the first is higher: 1.31 for the first, 0.53 for the second.

Compared with B5, B6 is lower in “DR/DR OA” value: 0.22 for the first, −0.21 for the second.

Going from B7 to B8, the “DR/DR OA” value falls from 0.97 to 0.08.

First: B9
Second: B10
The “DR/DR OA” value of the first is lower: 0.01 for the first, 0.49 for the second.

Going from B11 to B12, the “DR/DR OA” value rises from 0.23 to 1.55.

First: B13
Second: B14
The “DR/DR OA” value of the first is lower: 0.50 for the first, 1.08 for the second.

Compared with B15, B16 is higher in “DR/DR OA” value: 0.87 for the first, 0.91 for the second.

First: B17
Second: B18
The “DR/DR OA” value of the first is higher: 1.43 for the first, 0.13 for the second.

Experiment: Probe fluorescence ratio response to linoleic acid relative to ADIFAB2
Type: binding
Conditions: response relative to ADIFAB2
Outline: as §1

Going from B1 to B2, the “DR/DR LA” value falls from 0.44 to 0.36.

Compared with B3, B4 is lower in “DR/DR LA” value: 1.47 for the first, 0.75 for the second.

Going from B5 to B6, the “DR/DR LA” value falls from 0.30 to 0.17.

First: B7
Second: B8
The “DR/DR LA” value of the first is higher: 0.91 for the first, 0.38 for the second.

Compared with B9, B10 is higher in “DR/DR LA” value: 0.36 for the first, 0.57 for the second.

First: B11
Second: B12
The “DR/DR LA” value of the first is lower: 0.40 for the first, 1.75 for the second.

First: B13
Second: B14
The “DR/DR LA” value of the first is higher: 0.74 for the first, 0.41 for the second.

Compared with B15, B16 is lower in “DR/DR LA” value: 1.15 for the first, 1.04 for the second.

Going from B17 to B18, the “DR/DR LA” value falls from 1.76 to 0.16.

Experiment: Probe fluorescence ratio response to arachidonic acid relative to ADIFAB2
Type: binding
Conditions: arachidonic acid; response relative to ADIFAB2
Outline: as §1

Compared with B1, B2 is lower in “DR/DR AA” value: 0.49 for the first, 0.32 for the second.

Going from B3 to B4, the “DR/DR AA” value falls from 1.02 to 0.65.

Compared with B5, B6 is higher in “DR/DR AA” value: 0.25 for the first, 0.30 for the second.

First: B7
Second: B8
The “DR/DR AA” value of the first is higher: 0.85 for the first, 0.40 for the second.

Compared with B9, B10 is higher in “DR/DR AA” value: 0.37 for the first, 0.58 for the second.

Going from B11 to B12, the “DR/DR AA” value rises from 0.25 to 1.78.

Going from B13 to B14, the “DR/DR AA” value falls from 0.55 to 0.52.

First: B15
Second: B16
The “DR/DR AA” value of the first is higher: 0.99 for the first, 0.88 for the second.

First: B17
Second: B18
The “DR/DR AA” value of the first is higher: 1.41 for the first, 0.20 for the second.

Experiment: Probe fluorescence ratio response to linolenic acid relative to ADIFAB2
Type: binding
Conditions: response relative to ADIFAB2
Outline: as §1

First: B1
Second: B2
The “DR/DR LNA” value of the first is higher: 0.44 for the first, 0.36 for the second.

Going from B3 to B4, the “DR/DR LNA” value falls from 1.49 to 0.91.

First: B5
Second: B6
The “DR/DR LNA” value of the first is lower: 0.27 for the first, 0.41 for the second.

First: B7
Second: B8
The “DR/DR LNA” value of the first is higher: 0.90 for the first, 0.78 for the second.

First: B9
Second: B10
The “DR/DR LNA” value of the first is higher: 0.80 for the first, 0.57 for the second.

Going from B11 to B12, the “DR/DR LNA” value rises from 0.44 to 1.61.

Compared with B13, B14 is lower in “DR/DR LNA” value: 0.82 for the first, 0.57 for the second.

Compared with B15, B16 is higher in “DR/DR LNA” value: 1.03 for the first, 1.06 for the second.

Compared with B17, B18 is lower in “DR/DR LNA” value: 1.62 for the first, 0.14 for the second.
